Source: article PMC4441819

Biological target: CH67 Fab, critical dipeptide VD changed to MD (human)
Test: BLI

## HA A/Solomon Islands/03/2006 globular head (from UniProt A7Y8I1) (domain or fragment)
  Kd: 8.5 µM
  koff: 0.00478 s⁻¹
  kon: 56200 M⁻¹ s⁻¹
